Experiments:
[1] = biological target: T1, mouse CD40 on blood cells (mouse, UniProt P27512 20-289); assay: FACS, whole blood
T1 construct: whole, on cells; also called mouse blood

[2] = biological target: T2, rat CD40 on blood cells (rat, UniProt A6JXD6 20-289); assay: FACS, whole blood
T2 construct: also called rat blood
T2 sequence: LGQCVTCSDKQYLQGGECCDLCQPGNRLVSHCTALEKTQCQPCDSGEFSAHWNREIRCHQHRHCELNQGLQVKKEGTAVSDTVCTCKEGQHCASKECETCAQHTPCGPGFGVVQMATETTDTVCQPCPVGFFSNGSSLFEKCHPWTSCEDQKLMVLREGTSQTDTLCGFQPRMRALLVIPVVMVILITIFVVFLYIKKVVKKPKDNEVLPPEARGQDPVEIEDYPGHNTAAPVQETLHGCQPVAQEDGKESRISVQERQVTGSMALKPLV

[3] = biological target: T3, dog CD40 on blood cells (dog, UniProt Q7YRL5 21-274); assay: FACS, whole blood
T3 construct: whole, on cells; also called dog blood
T3 sequence (looked up): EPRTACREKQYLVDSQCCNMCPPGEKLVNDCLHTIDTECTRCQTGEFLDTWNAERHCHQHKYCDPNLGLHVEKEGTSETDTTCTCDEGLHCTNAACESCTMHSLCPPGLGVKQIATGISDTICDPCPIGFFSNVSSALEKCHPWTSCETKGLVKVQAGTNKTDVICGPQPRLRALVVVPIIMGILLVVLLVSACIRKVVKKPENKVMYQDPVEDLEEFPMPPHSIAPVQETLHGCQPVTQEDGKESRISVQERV

[4] = biological target: T4, human CD40 on cells (human, UniProt P25942 21-277); assay: cell-based or functional assay
T4 sequence (P25942 21-277): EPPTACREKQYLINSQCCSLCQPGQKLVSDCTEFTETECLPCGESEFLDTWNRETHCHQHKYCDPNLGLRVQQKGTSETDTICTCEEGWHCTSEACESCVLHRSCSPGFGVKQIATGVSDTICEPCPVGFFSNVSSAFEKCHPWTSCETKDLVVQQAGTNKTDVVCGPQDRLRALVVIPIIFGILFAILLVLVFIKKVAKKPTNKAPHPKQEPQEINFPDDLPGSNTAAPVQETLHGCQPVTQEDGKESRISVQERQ

[5] = biological target: T4, human CD40 on cells; assay: cell-based or functional assay; remark: listed apart in the source
[6] = biological target: T4, human CD40 on cells; assay: cell-based or functional assay; remark: listed apart in the source
[7] = biological target: T4, human CD40 on cells; assay: cell-based or functional assay; remark: listed apart in the source
[8] = biological target: RANK/Ig; assay: ELISA, RANK/Ig coated, antibody 1 µg/ml
Chain of RANK/Ig (Q9Y6Q6 whole entry): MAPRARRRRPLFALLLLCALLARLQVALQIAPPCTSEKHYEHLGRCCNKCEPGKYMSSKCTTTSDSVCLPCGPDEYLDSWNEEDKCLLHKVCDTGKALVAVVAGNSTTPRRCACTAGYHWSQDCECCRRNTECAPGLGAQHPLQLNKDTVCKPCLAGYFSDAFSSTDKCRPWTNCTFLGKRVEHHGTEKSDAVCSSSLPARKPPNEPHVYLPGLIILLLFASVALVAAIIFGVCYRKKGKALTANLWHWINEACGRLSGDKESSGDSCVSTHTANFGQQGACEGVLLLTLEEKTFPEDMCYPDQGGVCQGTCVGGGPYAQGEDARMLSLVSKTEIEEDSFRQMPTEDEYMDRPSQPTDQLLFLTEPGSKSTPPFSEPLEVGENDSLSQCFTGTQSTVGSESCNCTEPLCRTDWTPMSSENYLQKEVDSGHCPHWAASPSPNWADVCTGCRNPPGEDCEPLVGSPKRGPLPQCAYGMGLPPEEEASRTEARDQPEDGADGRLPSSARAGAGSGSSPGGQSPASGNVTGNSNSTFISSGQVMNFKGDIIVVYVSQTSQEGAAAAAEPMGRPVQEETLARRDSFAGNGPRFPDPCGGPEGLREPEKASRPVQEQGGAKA
Protocol: (§1) We then washed the plate with PBST (PBS+0.1% Tween-20) three times and blocked the plate with PBST+0.5% BSA at 150 µl/well. We incubated the plate at room temperature for 1 hour and then washed with PBST three times. […] We incubated the plate at room temperature for 1 hour then washed with PBST three times. […] We incubated the plate at room temperature for 1 hour and then washed with PBST three times. […] We then read the plate using a SpectraMax™ plate reader.

[9] = biological target: T5, 4-1BB/Ig; assay: ELISA, 4-1BB/Ig coated, antibody 1 µg/ml
T5 construct: also called CD137
Protocol: as §1

[10] = biological target: T6, TNFR-1/Ig; assay: ELISA, TNFR-1/Ig coated, antibody 1 µg/ml
T6 construct: also called Tumor Necrosis Factor Receptor-1
T6 sequence (P19438 whole entry): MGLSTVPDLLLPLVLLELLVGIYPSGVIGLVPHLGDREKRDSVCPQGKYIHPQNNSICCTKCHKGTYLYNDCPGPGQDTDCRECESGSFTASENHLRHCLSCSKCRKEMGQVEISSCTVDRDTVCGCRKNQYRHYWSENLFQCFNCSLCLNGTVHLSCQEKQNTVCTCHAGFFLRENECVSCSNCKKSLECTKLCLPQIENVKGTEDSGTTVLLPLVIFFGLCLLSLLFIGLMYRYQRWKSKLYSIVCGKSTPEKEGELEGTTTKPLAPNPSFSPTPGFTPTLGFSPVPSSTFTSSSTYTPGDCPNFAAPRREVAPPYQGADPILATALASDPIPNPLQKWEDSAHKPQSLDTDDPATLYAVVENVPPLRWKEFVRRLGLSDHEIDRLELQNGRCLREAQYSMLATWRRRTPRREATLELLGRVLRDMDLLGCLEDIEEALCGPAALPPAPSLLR
Protocol: as §1

[11] = biological target: T7, TNFR-2/Ig; assay: ELISA, TNFR-2/Ig coated, antibody 1 µg/ml
T7 construct: also called Tumor Necrosis Factor Receptor-2
T7 sequence (P20333 23-257): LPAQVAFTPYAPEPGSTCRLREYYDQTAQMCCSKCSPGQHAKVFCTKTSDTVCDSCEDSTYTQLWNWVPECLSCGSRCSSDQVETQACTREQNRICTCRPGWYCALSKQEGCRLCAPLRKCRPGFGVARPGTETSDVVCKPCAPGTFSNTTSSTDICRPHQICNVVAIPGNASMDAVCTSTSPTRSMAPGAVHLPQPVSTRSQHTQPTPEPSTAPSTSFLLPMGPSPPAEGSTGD
Protocol: as §1

[12] = biological target: T8, human CD40-IgG1 Fc fusion protein (human, UniProt P25942 21-193); assay: SPR BIAcore 3000, CD40-Ig immobilised, antibody injected
T8 construct: extracellular domain; also called CD40-Ig fusion protein; CD40-IgG fusion protein; not shown: human IgG1 Fc
T8 sequence (P25942 21-193): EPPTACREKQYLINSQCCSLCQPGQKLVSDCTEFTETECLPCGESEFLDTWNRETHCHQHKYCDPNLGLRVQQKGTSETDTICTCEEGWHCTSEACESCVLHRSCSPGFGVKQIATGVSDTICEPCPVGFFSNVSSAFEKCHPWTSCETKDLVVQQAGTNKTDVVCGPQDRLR

T1 sequence (P27512 20-289): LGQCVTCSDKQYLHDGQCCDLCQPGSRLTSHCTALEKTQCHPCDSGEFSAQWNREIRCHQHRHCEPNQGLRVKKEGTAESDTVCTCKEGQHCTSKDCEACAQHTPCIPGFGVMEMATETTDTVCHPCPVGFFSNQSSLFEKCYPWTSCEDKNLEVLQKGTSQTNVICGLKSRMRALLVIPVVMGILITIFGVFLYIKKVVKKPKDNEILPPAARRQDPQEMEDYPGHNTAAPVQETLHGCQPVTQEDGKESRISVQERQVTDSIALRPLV

B1: monoclonal antibody 22.1.1 (antibody, human IgG2, kappa, V domains shown)
VH: QVQLVESGGGVVQPGRSLRLSCAASGFTFSRYGMHWVRQAPGKGLEWVAVISSDGGNKYYADSVKGRFTISRDNSKNTLYLQMNSLRAEDTAVYYCTRRGTGKTYYHYCGMDVWGQGTTVTVSS
VL: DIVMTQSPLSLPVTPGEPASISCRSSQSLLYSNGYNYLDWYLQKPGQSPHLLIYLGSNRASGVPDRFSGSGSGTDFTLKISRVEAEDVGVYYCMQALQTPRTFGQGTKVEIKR
notes: Human IgG2 kappa from hybridoma; also called hybridoma 22.1.1 (LN 15875), ATCC PTA-4550
binding result [1]: no binding | binding result [2]: no binding | binding result [3]: no binding | B cell B7-1 (CD80), fold increase in median intensity at 1 µg/ml [4]: 1.2 fold | B cell B7-2 (CD86), fold increase in median intensity at 1 µg/ml [4]: 1 fold | B cell CD23, fold increase in median intensity at 1 µg/ml [4]: 1.3 fold | B cell ICAM (CD54), fold increase in median intensity at 1 µg/ml [4]: 1.1 fold | B cell MHC Class II, fold increase in median intensity at 1 µg/ml [4]: 1.4 fold | DC B7-1 (CD80), fold increase in median intensity at 1 µg/ml, 72 h [5]: 1.4 fold | DC B7-2 (CD86), fold increase in median intensity at 1 µg/ml, 72 h [5]: 16.3 fold | DC CD83, fold increase in median intensity at 1 µg/ml, 72 h [5]: 12 fold | DC ICAM (CD54), fold increase in median intensity at 1 µg/ml, 72 h [5]: 1.6 fold | DC MHC Class II, fold increase in median intensity at 1 µg/ml, 72 h [5]: 2.3 fold | DC IL-12p70 secretion with LPS, EC50 [6]: 0.1 µg/mL | Allo DC/T IFNγ secretion, EC50 [7]: 0.3 µg/mL | CD40 specific signal over the signal for this molecule [8]: ≥ 100 fold | CD40 specific signal over the signal for this molecule [9]: ≥ 100 fold | CD40 specific signal over the signal for this molecule [10]: ≥ 100 fold | CD40 specific signal over the signal for this molecule [11]: ≥ 100 fold | Kd [12]: 0.279 nM | koff [12]: 0.000155 s⁻¹ | kon [12]: 955000 M⁻¹ s⁻¹

B2: monoclonal antibody 21.2.1 (antibody, human IgG2, kappa, V domains shown)
VH: QVQLVESGGGVVQPGRSLRLSCAASGFTFSSYVMHWVRQAPGKGLEWVAVMSYDGSSKYYANSVKGRFTISRDNSKNTLYLQINSLRAEDTAVYYCARDGGKAVPGPDYWGQGILVTVSS
VL: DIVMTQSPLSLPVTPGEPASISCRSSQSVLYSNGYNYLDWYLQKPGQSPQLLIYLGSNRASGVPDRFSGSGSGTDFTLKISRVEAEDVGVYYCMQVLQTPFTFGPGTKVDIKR
notes: Human IgG2 kappa from hybridoma
binding result [1]: no binding | binding result [2]: no binding | binding result [3]: no binding | B cell B7-1 (CD80), fold increase in median intensity at 1 µg/ml [4]: 0.9 fold | B cell B7-2 (CD86), fold increase in median intensity at 1 µg/ml [4]: 1 fold | B cell CD23, fold increase in median intensity at 1 µg/ml [4]: 1 fold | B cell ICAM (CD54), fold increase in median intensity at 1 µg/ml [4]: 1.3 fold | B cell MHC Class II, fold increase in median intensity at 1 µg/ml [4]: 1.2 fold | DC B7-1 (CD80), fold increase in median intensity at 1 µg/ml, 72 h [5]: 0.9 fold | DC B7-2 (CD86), fold increase in median intensity at 1 µg/ml, 72 h [5]: 7.4 fold | DC CD83, fold increase in median intensity at 1 µg/ml, 72 h [5]: 10.8 fold | DC ICAM (CD54), fold increase in median intensity at 1 µg/ml, 72 h [5]: 1.5 fold | DC MHC Class II, fold increase in median intensity at 1 µg/ml, 72 h [5]: 1.8 fold | DC IL-12p70 secretion with LPS, EC50 [6]: 0.03 µg/mL | Allo DC/T IFNγ secretion, EC50 [7]: 0.03 µg/mL | CD40 specific signal over the signal for this molecule [8]: ≥ 100 fold | CD40 specific signal over the signal for this molecule [9]: ≥ 100 fold | CD40 specific signal over the signal for this molecule [10]: ≥ 100 fold | CD40 specific signal over the signal for this molecule [11]: ≥ 100 fold

B3: monoclonal antibody 3.1.1 (antibody, human IgG2, kappa, V domains shown)
VH: QVQLVESGGGVVQPGRSLRLSCAASGFTFSSYGMHWVRQAPGKGLEWVAVISKDGGNKYHADSVKGRFTISRDNSKNALYLQMNSLRVEDTAVYYCVRRGHQLVLGYYYYNGLDVWGQGTTVTVSS
VL: DIVLTQSPLSLPVTPGEPASISCRSSQSLLYSNGYNFLDWYLQKPGQSPQLLIYLGSNRASGVPDRFSGSGSGTDFTLKISRLEAEDVGVYYCMQALQTPRTFGQGTKVEIKR
notes: also called mAb 3.1.1; hybridoma 3.1.1 (LN 15848), ATCC PTA-3600
binding result [1]: no binding | binding result [2]: no binding | binding result [3]: no binding | B cell B7-1 (CD80), fold increase in median intensity at 1 µg/ml [4]: 1.7 fold | B cell B7-2 (CD86), fold increase in median intensity at 1 µg/ml [4]: 1.2 fold | B cell CD23, fold increase in median intensity at 1 µg/ml [4]: 5.6 fold | B cell ICAM (CD54), fold increase in median intensity at 1 µg/ml [4]: 1.3 fold | B cell MHC Class II, fold increase in median intensity at 1 µg/ml [4]: 3.2 fold | DC B7-1 (CD80), fold increase in median intensity at 1 µg/ml, 72 h [5]: 1.8 fold | DC B7-2 (CD86), fold increase in median intensity at 1 µg/ml, 72 h [5]: 23.7 fold | DC CD83, fold increase in median intensity at 1 µg/ml, 72 h [5]: 15.2 fold | DC ICAM (CD54), fold increase in median intensity at 1 µg/ml, 72 h [5]: 1.5 fold | DC MHC Class II, fold increase in median intensity at 1 µg/ml, 72 h [5]: 4.4 fold | DC IL-12p70 secretion with LPS, EC50 [6]: 0.2 µg/mL | Allo DC/T IFNγ secretion, EC50 [7]: 0.1 µg/mL | CD40 specific signal over the signal for this molecule [8]: ≥ 100 fold | CD40 specific signal over the signal for this molecule [9]: ≥ 100 fold | CD40 specific signal over the signal for this molecule [10]: ≥ 100 fold | CD40 specific signal over the signal for this molecule [11]: ≥ 100 fold | Kd [12]: 0.0395 nM | koff [12]: 3.31e-05 s⁻¹ | kon [12]: 1.12e+06 M⁻¹ s⁻¹

B4: monoclonal antibody 15.1.1 (antibody, human IgG2, kappa, V domains shown)
VH: QVQLQESGPGLVKPSETLSLTCTVSGGSIRSYYWTWIRQPPGKGLEWIGYIYYSGSTNYNPSLKSRVTISVDMSKNQFSLKLSSVTAADTAVYYCARKGDYGGNFNYFHQWGQGTLVTVSS
VL: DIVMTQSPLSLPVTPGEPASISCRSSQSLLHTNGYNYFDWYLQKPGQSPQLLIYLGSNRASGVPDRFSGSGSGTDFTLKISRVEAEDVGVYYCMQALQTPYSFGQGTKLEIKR
notes: Human IgG2 kappa from hybridoma; also called hybridoma 15.1.1 (LN 15851), ATCC PTA-3603
binding result [1]: no binding | binding result [2]: no binding | binding result [3]: no binding | CD40 specific signal over the signal for this molecule [8]: ≥ 100 fold | CD40 specific signal over the signal for this molecule [9]: ≥ 100 fold | CD40 specific signal over the signal for this molecule [10]: ≥ 100 fold | CD40 specific signal over the signal for this molecule [11]: ≥ 100 fold | Kd [12]: 0.00405 nM | koff [12]: 2.83e-07 s⁻¹ | kon [12]: 83000 M⁻¹ s⁻¹

B5: monoclonal antibody 10.8.3 (antibody, human IgG2, kappa, V domains shown)
VH: QVQLQESGPGLVKPSETLSLTCTVSGGSISSYYWIWIRQPAGKGLEWIGRVYTSGSTNYNPSLKSRVTMSVDTSKNQFSLKLSSVTAADTAVYYCARDGLYRGYGMDVWGQGTTVTVSS
VL: DIQMTQSPSSVSASVGDRVTITCRASQPISSWLAWYQQKPGKAPKLLIYSASGLQSGVPSRFSGSGSGTDFTLTISSLQPEDFATYYCQQTDSFPLTFGGGTKVEIKR
notes: as for B2
binding result [1]: no binding | binding result [2]: no binding | binding result [3]: no binding | CD40 specific signal over the signal for this molecule [8]: ≥ 100 fold | CD40 specific signal over the signal for this molecule [9]: ≥ 100 fold | CD40 specific signal over the signal for this molecule [10]: ≥ 100 fold | CD40 specific signal over the signal for this molecule [11]: ≥ 100 fold | Kd [12]: 0.00223 nM | koff [12]: 4.48e-07 s⁻¹ | kon [12]: 222000 M⁻¹ s⁻¹

B6: monoclonal antibody 23.5.1 (antibody, human IgG2, kappa, V domains shown)
VH: QVQLVESGGGVVQPGRSLRLSCVASGFTFSNYGMHWVRQAPGKGLEWVAIISYDGSNKYYADSVKGRFTISRDNSKNTLYVQMNSLRAEDTAVYYCARRGHYGRDYYSYYGLDVWGQGTTVTVSS
VL: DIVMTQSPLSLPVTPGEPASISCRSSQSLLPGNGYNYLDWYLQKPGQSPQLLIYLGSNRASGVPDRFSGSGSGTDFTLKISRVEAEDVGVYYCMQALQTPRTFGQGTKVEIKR
notes: also called hybridoma 23.5.1 (LN 15855), ATCC PTA-4548
binding result [1]: no binding | binding result [2]: no binding | binding result [3]: no binding | B cell B7-1 (CD80), fold increase in median intensity at 1 µg/ml [4]: 1.4 fold | B cell B7-2 (CD86), fold increase in median intensity at 1 µg/ml [4]: 1 fold | B cell CD23, fold increase in median intensity at 1 µg/ml [4]: 1.1 fold | B cell ICAM (CD54), fold increase in median intensity at 1 µg/ml [4]: 1.1 fold | B cell MHC Class II, fold increase in median intensity at 1 µg/ml [4]: 1.4 fold | DC B7-1 (CD80), fold increase in median intensity at 1 µg/ml, 72 h [5]: 1.1 fold | DC B7-2 (CD86), fold increase in median intensity at 1 µg/ml, 72 h [5]: 10.7 fold | DC CD83, fold increase in median intensity at 1 µg/ml, 72 h [5]: 9.2 fold | DC ICAM (CD54), fold increase in median intensity at 1 µg/ml, 72 h [5]: 1.2 fold | DC MHC Class II, fold increase in median intensity at 1 µg/ml, 72 h [5]: 2.3 fold | DC IL-12p70 secretion with LPS, EC50 [6]: 0.1 µg/mL | Allo DC/T IFNγ secretion, EC50 [7]: 0.2 µg/mL | CD40 specific signal over the signal for this molecule [8]: ≥ 100 fold | CD40 specific signal over the signal for this molecule [9]: ≥ 100 fold | CD40 specific signal over the signal for this molecule [10]: ≥ 100 fold | CD40 specific signal over the signal for this molecule [11]: ≥ 100 fold

— patent US7288251 (ABGENIX, dated 2007)
